T1: ADAM9 on ADAM9-positive cells (Calu-3, Ls174T) (UniProt Q13443 29-819, limits assumed)
T1 sequence (looked up): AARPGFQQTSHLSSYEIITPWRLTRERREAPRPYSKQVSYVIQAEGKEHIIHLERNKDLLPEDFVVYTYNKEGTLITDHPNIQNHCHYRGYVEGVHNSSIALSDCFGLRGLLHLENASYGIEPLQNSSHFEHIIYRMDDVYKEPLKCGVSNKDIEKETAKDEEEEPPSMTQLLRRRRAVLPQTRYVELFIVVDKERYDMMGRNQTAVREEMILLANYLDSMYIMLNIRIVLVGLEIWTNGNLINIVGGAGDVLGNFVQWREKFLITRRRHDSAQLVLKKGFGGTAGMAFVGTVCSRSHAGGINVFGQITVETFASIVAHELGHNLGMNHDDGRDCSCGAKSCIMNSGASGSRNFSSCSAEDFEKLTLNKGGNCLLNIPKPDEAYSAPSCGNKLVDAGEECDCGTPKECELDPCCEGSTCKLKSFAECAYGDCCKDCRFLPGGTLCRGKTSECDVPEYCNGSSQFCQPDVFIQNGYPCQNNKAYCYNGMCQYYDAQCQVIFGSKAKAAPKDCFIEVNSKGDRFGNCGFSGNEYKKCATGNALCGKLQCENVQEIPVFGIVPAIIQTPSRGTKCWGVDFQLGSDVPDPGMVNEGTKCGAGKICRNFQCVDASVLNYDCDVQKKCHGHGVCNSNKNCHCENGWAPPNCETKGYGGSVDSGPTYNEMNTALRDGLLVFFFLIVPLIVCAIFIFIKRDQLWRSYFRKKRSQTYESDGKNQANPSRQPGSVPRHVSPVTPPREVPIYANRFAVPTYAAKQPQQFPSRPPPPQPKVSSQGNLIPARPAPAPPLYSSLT


Target: T1, ADAM9 on ADAM9-positive cells (Calu-3, …)
Assay: cell-based or functional assay

Row | Binder | IC50 (nM), inhibition of cell proliferation, Calu-3 cells, CellTiter-Glo, 6 days | IC50 (nM), inhibition of cell proliferation, Ls174T cells, CellTiter-Glo, 6 days
1 | ADC-3D-1 (Reference ADC-22C) (antibody, human IgG1, kappa, V domains shown, control linker-payload conjugated to antibody thiols after TCEP reduction; DAR (k) 7.5 for the whole antibody) VH: QVQLQQPGTEVVKPGASVKLSCKASGFTFPLYWMHWVRQRPGRGLEWIGRIIPIFGHTKYNEKFKNKATLTADESSSTAYMELRSLTSDDSAVYYCARGGYYYYPREGFLDYWGQGTSVTVSS VL: DIVMTQSPASLSVSPGERASISCRSSQSVDYSGDSYMNWYQQKPGQSPRLLIYAASDRESGVPDRFSGSGSGTDFTLKISRVEEEDAGTYYCQQSREDPFTFGQGTKVDIKR | 0.34 nM | –
2 | ADC-4D-1 (Reference ADC-22C) (antibody, human IgG1, kappa, V domains shown, control linker-payload conjugated to antibody thiols after TCEP reduction; DAR (k) 7.6 for the whole antibody) VH: QVQLQQPGTEVVKPGASVKLSCKASGFTFPLYWMHWVRQRPGRGLEWIGRIIPIFGHTKYNEKFKNKATLTADESSSTAYMELRSLTSDDSAVYYCARGGYYYYPREGFLDYWGQGTSVTVSS VL: DIVMTQSPASLSVSPGERASISCRSSQSVDYSGDSYMNWYQQKPGQSPRLLIYAASDRESGVPDRFSGSGSGTDFTLKISRVEEEDAGTYYCQQSREDPFTFGQGTKVDIKR | 0.78 nM | –
3 | ADC-1D-1 (Reference ADC-20C) (antibody, human IgG1, kappa, V domains shown, control linker-payload conjugated to antibody thiols after TCEP reduction; DAR (k) 4.4 for the whole antibody) VH: QVQLQQPGTEVVKPGASVKLSCKASGFTFPLYWMHWVRQRPGRGLEWIGRIIPIFGHTKYNEKFKNKATLTADESSSTAYMELRSLTSDDSAVYYCARGGYYYYPREGFLDYWGQGTSVTVSS VL: DIVMTQSPASLSVSPGERASISCRSSQSVDYSGDSYMNWYQQKPGQSPRLLIYAASDRESGVPDRFSGSGSGTDFTLKISRVEEEDAGTYYCQQSREDPFTFGQGTKVDIKR | – | 15.3 nM
4 | ADC-2D-1 (Reference ADC-20C) (antibody, human IgG1, kappa, V domains shown, control linker-payload conjugated to antibody thiols after TCEP reduction; DAR (k) 4.3 for the whole antibody) VH: QVQLQQPGTEVVKPGASVKLSCKASGFTFPLYWMHWVRQRPGRGLEWIGRIIPIFGHTKYNEKFKNKATLTADESSSTAYMELRSLTSDDSAVYYCARGGYYYYPREGFLDYWGQGTSVTVSS VL: DIVMTQSPASLSVSPGERASISCRSSQSVDYSGDSYMNWYQQKPGQSPRLLIYAASDRESGVPDRFSGSGSGTDFTLKISRVEEEDAGTYYCQQSREDPFTFGQGTKVDIKR | – | 27.1 nM

From patent EP4684807A1, “LINKER AND USE THEREOF IN LIGAND DRUG CONJUGATE” (priority 2023, dated 2024)
